Experimental data published in a protein production outcome set (Wang et al. 2014).

Assay: label from the status in PepcDB records

Sequence | protein production
MVKLGCSFSGKPGKEAGDQDGAAMDSVPLISPLDVSQLQPSFSDQVVINTQTEYQLTSADQPKKFADLEGQRLACSHSEEGRRLPTARMIAFAMALLGCVLIMYKAIWYDQFTCPDGFLLRHKICTPLTLEMYYTEMDPERHRSILAAIGAYPLSRKHGTEMPAVWGNNYRTAKEEHKGTTPAAMAVSTAAAAAAAEGTEPSGKSLDTREKEDPQKAEGVPSQPPK | failed
MVKNGRDPPERNFYCTEKEETAPPLMNIFDDFKSQIEREIMTIFLKTAYESLLSIAISTEIIVPEDETRSLEKEVIKLMKLMKLMNLLEPLGNRVSRLMGLVRNAEEHRERIVKRNQESDVREIFKIAASRTKTRFHKALQKESSSSSMKWGFTEAKDEVLSLGIRLTHALIKLTLLRVKKNDREKQLLLRDWIFDESYEKQSALMYLLDYLLYKAEEFAASVVVEESGNDHHRQHILEEDRIGDDILTRISEAIFILQLLAMNLSRNVLTERDLIATNDQLLRCVRDVKFVESTIVVLMKGRSLKLKHKGKQSLLMKERTETIFWAKVNAELNKCWGESFWKYVEAARHLEAVVSSQQIVYTLCKLFVFGFES | failed
MVKQGVFMKTDQSKVKKLSDYKSLDYFVIHVDLQIDLSKKPVESKARLTVVPNLNVDSHSNDLVLDGENMTLVSLQMNDNLLKENEYELTKDSLIIKNIPQNTPFTIEMTSLLGENTDLFGLYETEGVALVKAESEGLRRVFYLPDRPDNLATYKTTIIANQEDYPVLLSNGVLIEKKELPLGLHSVTWLDDVPKPSYLFALVAGNLQRSVTYYQTKSGRELPIEFYVPPSATSKCDFAKEVLKEAMAWDERTFNLECALRQHMVAGVDKYASGASEPTGLNLFNTENLFASPETKTDLGILRVLEVVAHEFFHYWSGDRVTIRDWFNLPLKEGLTTFRAAMFREELFGTDLIRLLDGKNLDERAPRQSAYTAVRSLYTAAAYEKSADIFRMMMLFIGKEPFIEAVAKFFKDNDGGAVTLEDFIESISNSSGKDLRSFLSWFTESGIPELIVTDELNPDTKQYFLKIKTVNGRNRPIPILMGLLDSSGAEIVADKLLIVDQEEIEFQFENIQTRPIPSLLRSFSAPVHMKYEYSYQDLLLLMQFDTNLYNRCEAAKQLISALINDFCIGKKIELSPQFFAVYKALLSDNSLNEWMLAELITLPSLEELIENQDKPDFEKLNEGRQLIQNALANELKTDFYNLLFRIQISGDDDKQKLKGFDLKQAGLRRLKSVCFSYLLNVDFEKTKEKLILQFEDALGKNMTETALALSMLCEINCEEADVALEDYYHYWKNDPGAVNNWFSIQALAHSPDVIERVKKLMRHGDFDLSNPNKVYALLGSFIKNPFGFHSVTGEGYQLVADAIFDLDKINPTLAANLTEKFTYWDKYDVNRQAMMISTLKIIYSNATSSDVRTMAKKGLDKVKEDLPLPIHLTFHGGSTMQDRTAQLIADGNKENAYQLH | failed
MVKRANTFAMRPLTADDEQVLRDLLDASAALWNEINYQRLMRYNDKDGFEDEDVWDADTGALEGKYKAVLGASTAQTVRRANTEAWRSFFRLKKQFHDESNTSVTEHPEPPGFRGNKDDGRVLKGVVRKDAYSVEWGDRSRLEMVVGEQLRDRHNSPKSRLRLEIVGDPNWSDYEDQGRLELWYDETDCTFRASQPVTVSDDARATPLANEKAALDIGANNLVACTTTTGQQYLYEGRELFQRFRETTREIARLQSKLPEGRYSSKRIRRLYRKRTRRRDHAQETLCRDLLEQLYGEGVDTVYIGGLTDVLETHWSAETNAKTHNFWAFKQFTERLAWTADEYGISVEVRSEAWTSQECPQCGSTDRTTRQQDTLTCPCGFEGHADVTASETFLERHTEKAVRPMARPVRFEWDDHEWSESPRSPARESPKEQRTDPSTVPRDGNVVSGDSLEHHHHHH | failed
MVKSDIIIVKNFHGVFCLNLVNEIFENKYKIIDILGKGGMSTVYLAKDIKLQKFWAIKEVSNNINDTSKLKVDLLAETNILKKLDHPALPRIVDIIKRDESLYIVMDFIDGVSLDKFIHKNGAINEKVVLDWAKQICDVLSYLHSQKPNPIIYRDMKPGNLMLTQNGKIKLIDFGIAREYKKEVSKDTTYIGTRGYAAPEQYGDCQSDARTDIYSFGVTLYHMLTGKGPNDPPFELKPVRELNSSLSEGIEHIIEKSTRQDPSLRYQNVDEMLYDIKNIHKLNSKYKKQLVKKYIKVAASACLFIFSVFLIISGVLGIKSDSANEYNNIIENGSKQNGDKAVEYFKQAVDKNSSNPKAYIKIIDTYLENGEYDQSIDFIETNLNNKQSELLKDNELLFKIGMAYFDDESYAKAYQYFNKIKGADISISEPLKYYKPVANALSKVDLQNKDKIVSSITQLEKYIDSRSDVDYKVESYITLAELYRDNPQIFPQNTDKEIGVLEKASSVSANKNNAILYGQLGQAYFDKASESKIEQDKYNFYLNKALDSYKNSIQMGSKISNTYCKLGLIYKYLGNTAESKNTFQKETQLFSDDYKGYMEMALLEYDSQQSAAPETRNYSEFVKYYNSTVSKKYNENDVDFMTLKQEYNDLKNQGVIK | failed
MVKSFPKGKHRQRIRLWLGSLVLAALLVGGGLFSWYHWRSPSLKPLYTLTVEAPPQTLPELEQWAQSADLLKRDRARYLLAVESLSQRQPQVALQWLQNLEQTYRPMAAPILLLRAEAYRQQGDSRRAQETWEQLLRDYGSEPEAAIALLSLNQPQRAIARFPQHPAVVHYVAQQLEKNPDQVPYLKLVARYGLFLQGYGTYLEILRQRYADQLTPADWEAIAFGYWEKMQYAPAAEAYAKARPTPLNLYRVGRGRQLSGERTGAIAAYQALIQRFPNSSEAALAQLRLARLAKTAAERLPLLAKCLQLATENQAPAIAADALLEQYQAYRELGNTKGAQQSQQQLFKTYPQSSAAAELRWQLAQGAAQKRQWSQAQQWVREILKFNPESELAARAAFWQGKWQGEAGQPQAQRQTWQLVTERYPHTYYAWRAASLLQKPVGTFTTLRQQRPSVAGDRQPLLPLATGSPTLQELYLLRQFQEAWQRWQWEFQNRVTPTAAEQLTDGLIRLGVGEYLDGIFMLQNLFTRAAREPQVATFFAPIRRDLRFWYALYPLPYWELVKKWSLAHNLNPLLVMALIRQESRFEKDIRSVVGATGLMQLMPETAAWIAQQLNLEDYSLVDPEHNIRLGTWYFDYTHNQYNQNTLLALASYNAGPGNVSQWLERFDIGDSDRFVESIPFPETYGYVKSVLENYWNYWQLYAQP | failed
MVKTRAQRIKRMSVVDALCIRSQISVKSARYCKTVSKHLAKLQLAESGKNSSLVVCPSMGKTMKLYSMDAKRCKLSLLSTIDPSQRTPEVFMYMISSYNGIICCVNMIYDEDVENKFCDLQIWICNPITKETLLLPQGTPSFEFEPSIGVAYGSDVSDYKVYRIFCTGKIIPEERGPAEGFYVQEGRFFTKYGHSLAYECEVYSSSTGSWKNIGTVPCLPMSCSLRPYRRTGHIFVGGKVYWLVSLDAPGKILSVDLEGKFEVINLPAYADGLREDEQITEASHLINLKGSLGLLVLHPENMDVWVWKHDGERYSWVFQFKDVVPIKDDELILAVTALDNKIICVNETHWRIYDMETEKWKRRKSPRTGFRNPVVLPFTESVLPCNGGVKQ | failed
MVKVSIIIPIYNVENYLDKCLDTAVNQTLGCIEIIGIDDGSTDKSRDILNKYAKKYSFIKIINKENGGLSSARNTGIINAKGEYIYFLDSDDYIEYDSMKICYEIATKNKLDIVSFDAESFVDGEGFTKKLKKYDRKDILDGNIKMGCEYFCELIKNKCYTASACLNFYRREFLIDNNLFFYDGILHEDELYTVKAYTLANKVRYIPYKLYFRRLRSNSITTQSISEKHLYGRLIAARESYRHYLGYKDVFDNDTNTCLLNHISNMYYFMLKDIYENKRIYNKRYIIEDKIINDIKSKKDIKSFKLDLQYRFPLIIYTIKKYLKKD | failed
MVLAGGVGKRLLPLTRERPKPYLPLAGKPLYMYAVEQVAMVRSLLDRAVMVTPPGHPTPPGSLPSWLDTVEQQGEGVEAGLATALKRLGGGEEVVVSFVGYLARPNTLVRHVLDFYSVTRYKLVLALAPVTRGSESFGFVDADPSTGRVLGFSGSREEWMAGRGRVFAGVLAGDPEALEVLAGEGFVEGINTLARRGLVGSVVWPGEWLEVGYPCDLLEAPRLVVEAWAAVISAKARVARSSVIQGGVVIEEDAEVGEGAVVEGPAYLGRGAVVGRNSVVGPGVVLEEGAVVGDLVSIERSVMLERAEASGPSRLEGVVIGDGAYIAPLAAATNREGCTVVAPKTRLGPRATLEPGKTYTLEHHHHHH | failed
MVLEIGLPPLHVGFIMAYSLLAASLSIFLGLALAEFDVVAHAVLAGYYAGLFFPMSVYTNFFTAAASGAPRPAKEYLPLLLAFILAAVAPLHGSTSTLATLFLLSQAFLLYYMALQAGRFRRDALARFSALAPPISGTGASLILLSSSQLGFLDALMSLTLAFSTPVPLLMAPMAIGASIYGLGPARGKEAIIRLSPALTAIPASILSVLTLSINPYLLPLSLYLVVMRPWRIVSELISVRRPKPPQLYLLSVHAATLAAIVSSLILASNSNIVEAGHAIMIGVIAPHALLHSIVRGGEIPFTRRPRSWTPIPPLLLAASTPLRFASKEASLALALLALSIHVASILDPHPRNIIPRAFRVEGGKQQSATTGG | failed
MVLIYCYKYFHEFMEAFDRIQKNIMEAHMKKVIGAATATVFGLGAFTTTATAETIVTADVLNVREKPTTESKVVEKVKNGQELKVINTEDGWSKIELNGKEVFVSSEFTKDIYHVTANLLNVRTEANTESKILGRLKKDDVIESTNQVKDGWLQFEYKGKTAYVNVSFLSSTAPVEKKADEKTKQVAKVQKMVKAKEEAKTQKVTKAKETIKPKEEEKVQEVVKPKEEEKVQEVVKPKEEEKVQEVVKPKEEEKIQEVAKPKEEAKVQEVAKPKEEEKVQEVAKPKEEEKVQEVVKPKEEEKVQEVAKSKEEAKVQEVAKPKEEAKVQEVVKPKEEAKVQEEAKAQEIAKAKEEAKAQEIAKAKEEEKAREIAKAKEEAKAQEIAKAKEEAKAQEIAKAKEEAKAQEIAKAKEEEKAREIAKAKEEAKAQEIAKAKEEAKAREIAKAKEEAKAREAIKAKEESKNNTQSAKRELTVVATAYTADPSENGTYGGRVLTAMGHDLTANPNMRIIAVDPKVIPLGSKVWVEGYGEAIAGDTGSAIKGNRIDVLMGSKSKAMDWGRQTVKVKIL | failed
MVLKGDAKRIVAMSSTHIAMLDAIGEVRCITGVSGIDYISNPDIQARRDSIGDVGYEGNINYELLLSLDPDLVLLYGVNGASAMESKLEELDIPFMYVGDYLEESPLGKAEWMVVLSEVTGKREKGEKAFAAIPVRYNALKKKVADSTLGLEHHHHHH | not failed
MVLLLRYRSLTINLTPLIPKSQKFHTLQSFRNPNFISIPKISASTNNPTTTTNRSISDATKFAKSVLFIPPGVEIEELTDDMVLPGSNIVIGPFAGHSQIKEVEFVKSSARARDCPKDDRPEIAILGRSNVGKSSLINCLVRKKEVALTSKKPGKTQLINHFLVNKSWYIVDLPGYGFAKVSDAAKTDWSAFTKGYFLNRDSLVCVLLLIDASVPPQKIDLDCANWLGRNNVPMTFVFTKCDKMKATKGKRPDENIKAFQQIIRENFKVHPPWILTSSVSGLGRDELLLHMSQLRNYWDQ | failed
MVLSEIFRGNNEVREAARAGVQIDTVSVASASDAASAADGSGKITGAIRPSAVAGSFYPADRTALKQLINQQLDYGRKLLQQLEPTLPAGVPRAVIVPHAGYIYSGTAAALAYALLERGRGSVTRAVIVGPTHRVAVRGVACSTAAAFETPLGTVPVDIAAERKALGLSVNEPLRSGTHARPGAPAPAMIVNAPTHAQEHAVEVQIPFLQTVLGPDLTIVPLNAGDATPQEVGDVLRALWGGPETVIVISSDLSHYHPHEVARALDDQTIADIAALHLPIHPRRACGAYPINGLLDVLKGRKDMRLFELGCSTSGDDGVVALAGQPRPAMRDADEPVVGYVSFAAWESKPEADALAGADDLGTSGTPSHGEVLLKLARAAIRERLHIEHPTAADSTASILAANPWLNEPGACFVTLTEGGRLRGCIGSLVAHRSLGKDVAEHAVDAATRDPRFTPVTAAEYPLLNVEVSVLGEPEPITVNSCDADSRGTGSKTATLASLQSGPQTDAVKRDGSNVERPVRSRTELEEVLRPGKDGLILADRRGRSATFLPQVWDELPDPHDFVAHLLAKAGIRPSYDWTDSEIDCQRYEVTAYAEH | failed
